Values quoted from earlier work as cited in PMC2833280.

Assays:
Experiment in all cases: kinetics
Glu380 = Glu380 (UniProt position 380, TRWTGEFATHG)
Lys443 [1] = molecular target: Lys443 (UniProt position 443, IVWRKKIGIHE); details: enzyme-ATP complex and free CMPr (kcat/Km)
Lys443 [2] = molecular target: Lys443 (UniProt position 443, TVNRPKLGVHE); details: enzyme-substrate complexes (kcat)

Substance: Carbapenam synthetase (CPS, CarA) (Pectobacterium carotovorum (printed 'Pectobacterium carotorova'; formerly Erwinia carotovora))
- pKa (Glu380; enzyme-ATP complex and free CMPr (kcat/Km)): 7.8 ± 0.1
- pKa (Glu380; enzyme-substrate complexes (kcat)): 7.4 ± 0.1
- pKa (Lys443 [1]): 10.0 ± 0.1

Substance: beta-Lactam synthetase (beta-LS) (Streptomyces clavuligerus (printed 'Streptomyces clavuligerous'))
- pKa (Lys443 [2]): 8.07 ± 0.05
